Data on one molecule can be found in paper PMC4980298 (Molecular microbiology, 2016).

This assay concerns the target T1, FimL fused to T18 or T25 (BACTH) (P. aeruginosa PAO1, UniProt Q9I2S3 1-562).
T1 sequence: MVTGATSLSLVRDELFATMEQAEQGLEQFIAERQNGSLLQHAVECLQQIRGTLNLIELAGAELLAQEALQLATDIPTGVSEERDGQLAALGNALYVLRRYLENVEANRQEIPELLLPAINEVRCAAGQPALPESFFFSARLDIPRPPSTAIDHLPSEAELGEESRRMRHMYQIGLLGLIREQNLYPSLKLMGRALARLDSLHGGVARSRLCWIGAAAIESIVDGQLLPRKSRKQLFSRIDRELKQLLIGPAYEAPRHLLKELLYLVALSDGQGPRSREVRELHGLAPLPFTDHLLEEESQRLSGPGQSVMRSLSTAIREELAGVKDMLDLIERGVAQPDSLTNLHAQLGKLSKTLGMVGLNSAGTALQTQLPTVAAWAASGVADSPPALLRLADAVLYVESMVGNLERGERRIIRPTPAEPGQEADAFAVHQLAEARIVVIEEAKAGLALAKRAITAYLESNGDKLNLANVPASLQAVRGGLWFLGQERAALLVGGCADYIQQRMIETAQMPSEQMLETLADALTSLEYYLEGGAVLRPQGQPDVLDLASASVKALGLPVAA
Briefly: two-hybrid.

B1: PilG fused to T18 or T25 (BACTH) (natural protein)
chain: MEQQSDGLKVMVIDDSKTIRRTAETLLKKVGCDVITAIDGFDALAKIADTHPNIIFVDIMMPRLDGYQTCALIKNNSAFKSTPVIMLSSKDGLFDKAKGRIVGSDQYLTKPFSKEELLGAIKAHVPSFTPVDAVS
Turning to B1, the “fold increase in β-galactosidase activity over controls” value was about 20 fold.
